This data set can be described thus: yeast display, Sf9 membrane polyspecificity reagent, FACS + sequencing; frameworks hold sequencing errors. The method, boiled down: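 Using colony PCR, genes from sorted yeast display clones were amplified, then sequenced on MiSeq at 2 × 250 and filtered by CDR length. The clones had been stained with 10% biotinylated, detergent-solubilized Sf9 membrane reagent for 1 hour at 4 °C and sorted by FACS into low and high (top ~1%) gates on anti-HA and streptavidin fluorescence. Polyreactivity labels come from the gate of origin.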
With “QVQLQESAGVLVQAGGSLRLRCSASGYISCHASMGWYRQAPGKEGELAASITKGSSTNYADSVKGRFTIRDNAINTVFLQMNSLKPEDTAVCYCAVTYPYWGDYTYWGQGTQVTVSS”, the “polyreactivity (PSR sort gate)” value is “low polyreactivity”. For the sequence “QVQLQESCGGLVQAGGSLRLSCAASGTIITARFMGWYRQAPGKERELVATITDGGNNNHAESVKGRFTISRDNAKNTVYLQMNSLKPEDAAVYYCAAGEVDNDTLLYWGQGSQVTVSS”, the “polyreactivity (PSR sort gate)” value is on record as “low polyreactivity”. As for “QVQLQESGDGLVQAVGSLRLSCAASGNISGDYYMGWYRQAPGKERELVAGIDAFGSSTNYADCVKGRFTISRDNAKNTVYLQMNRLKPEDTAVYYCAARPDGDRLFSYWGQGTQVTVSS”, the “polyreactivity (PSR sort gate)” value was “low polyreactivity”. Consider “QVQLQESGDGLVQAVGSLRLSCAASGYISGYYYMGWYRQAPGKERELVAGIDAFGSSTNYADCVKGRFTISRDNAKNTVYLQMNSPNPEDTAVYYCAAEFDDWDYHSYWGQGTQVSVSS”, for which the “polyreactivity (PSR sort gate)” value was “low polyreactivity”. Take “QVQLQESGDGLVQAVGSLRLSCAASGYISGYYYMGWYRQAPGKERELVAGIDAFGSSTNYADCVKGRFTISRDNAKTTVYLPPNSPKPEDTAVYYCAAEYDDWDYHWYWGQGTQVTVSS”: the “polyreactivity (PSR sort gate)” value was “low polyreactivity”. With “QVQLQESGGDLEQAGGSLRLSCTASGTISDVRDMGWYRQAPGKERELVATISYVTITYYSDSVKGRFTISRASEKHRVSADDEPETGRYRGVLLRYYWGLGTQVTVSS”, the “polyreactivity (PSR sort gate)” value was “low polyreactivity”.

“QVQLQESGGDLEQAGGSLRLSCTASGTISDVRVMGWYRQAPGKERELVATISYVTITYYADSVKGRFTISRDSEKHRVSADDEPESGRYRGVLLRYYWGLGTQVTVSS”: the “polyreactivity (PSR sort gate)” value is “low polyreactivity”. With “QVQLQESGGGLEHAGGSLRLSCAASGNIFLSIFMGWYRQAPGKEREFVAGIGSGTNTNYADSVKGRFTISRDNANNTVYLQMNSLKPEDTAVYYCNAVWGSHYPTYAKLSRDYWGQGTQVTVSS”, the “polyreactivity (PSR sort gate)” value was “high polyreactivity”. In the case of “QVQLQESGGGLEQAGGCLRLSCAASGSIFTYAVMGWYRQAHGKEHELVATIDTGSSTYYADSVKGRISISRDNAKNTLYLQMNSLKPEDTEVYYCAVNTYCRVRYRYWVQGTQVTVSS”, the “polyreactivity (PSR sort gate)” value is “high polyreactivity”. As for “QVQLQESGGGLEQAGGDLRLSCAASGNIFRDYIMGWYRQAPGKEREFVAGIDRGANTNYADSVKGRFTISRDNAKNTVYLQMNSLKPEDTAVYYCAVHTAIVADFIYWGQGTQVTVSS”, the “polyreactivity (PSR sort gate)” value is on record as “low polyreactivity”. Turning to “QVQLQESGGGLEQAGGSLRLSCAASGIIFDNPNMGWYRQAPGKERELVATINSGATTNYADSVKGRFTISRDNAKNTVYLQMNSLIPEDTAVYYCAVDLSPTYFYYWGQGTQVTVSS”, the “polyreactivity (PSR sort gate)” value is recorded as “high polyreactivity”. For the sequence “QVQLQESGGGLEQAGGSLRLSCAASGYISHIGTMGWYRQAPGKEREFVATIVVGSTTNYADSVKRRFTISRDNAKNTVYLQPESGRYRGVLLRGWLLAVGKFTYWGQGTQETVSS”, the “polyreactivity (PSR sort gate)” value is listed as “low polyreactivity”. As for “QVQLQESGGGLEQAGGSLRLSCAESGIIFDNPNMGWYRQAPGKERELVATINSGATTNYADSVKGRFTISRDNAKNTVYLQMNSLIPEDTAVYYCSVDLSPTYFYVWGQGTQVTVSS”, the “polyreactivity (PSR sort gate)” value is given as “high polyreactivity”.

Regarding “QVQLQESGGGLLQAGGSLRLSCAASGSISQYIFMGWYRQAPGKEREFVAGIGYGGTTNYADSVTGRFTISRDNAKNTVYLQMNSLKPEDTAMYYCSAREATEFYLYYWGQGTQVTVSS”, the “polyreactivity (PSR sort gate)” value is given as “low polyreactivity”. Turning to “QVQLQESGGGLMQAGGNLRLSCAASGYISTHYDMDWSRQAPGKERELVARIDDGAITNYADSVKGRFTISRDNATNTVYLQMNSLKPEDTAVYYCAVYSGDDYYHDYWGQGTQVTVSS”, the “polyreactivity (PSR sort gate)” value was “low polyreactivity”. Consider “QVQLQESGGGLMQAGGNLRLSCAASGYISTHYYMHWYRQAPGKERELVARIDDGAITNYADSVKGRFTISRDNAKNTVYLLMNSLKPEDTAVYYCAVYSGDDYYHDFWGQGTKVTVSS”, for which the “polyreactivity (PSR sort gate)” value is “low polyreactivity”. For “QVQLQESGGGLVHACGSLRPSCAASGSISDSWTMSWYRQAPGKEREFVAGITWGGTTNYADSVKGRFTISRDNAKNTVYLQMNSLKPEDSAVYYCNARQRTYYRTHRIRHKGNGYWGQGTQVTVSS”, the “polyreactivity (PSR sort gate)” value is reported as “low polyreactivity”. Turning to “QVQLQESGGGLVKAGGDLRLSCAASGNIFRDYIMGWYRQAPGKEREFVAGIDRGANTNYADSVKGRFTISRDNAKNTVYLQMNSLKPVDTAVYYCGVHTAIVPDFIYWGQGTQVTVSS”, the “polyreactivity (PSR sort gate)” value was “low polyreactivity”. As to “QVQLQESGGGLVLAGGSLRLSCAASGSISAQAYMGWDRQAPGKEREHVAGINYGDNTNYADSVKGRFTISRDNEHRVSADEQPETGRYRVVLLRGFLELFYYYIYWGQGTQVTVSS”, the “polyreactivity (PSR sort gate)” value is on record as “high polyreactivity”. On to “QVQLQESGGGLVQAGGCLRLRCAASRNISGSSDLGWYHQAPGKEREFVASMTSGGTTYYADSVKGRFTISRDNAKYTVYLQMKSQKTEDTAVYYCAVGDPADAEFGYWGQGTQVTVSS”, for which the “polyreactivity (PSR sort gate)” value is on record as “low polyreactivity”. “QVQLQESGGGLVQAGGCLRLSCAASGSIFDPDYMGWYHQAPGKESELVASISLGRITYYADSVKGRFTINRDNAKNTVYLQMNSLKPEDTAVYYCAVRVETIYYYSYWGQGTQVTVSS”: the “polyreactivity (PSR sort gate)” value is recorded as “high polyreactivity”. With “QVQLQESGGGLVQAGGRLPMSFAASGNIFDADIMGWYRQAPGKERELVASITDGRRTNYADSVKGRYTTSRDSEKNTVYLQMNSLKPEDTAVYYCAAIAYPVVPTYFDYDSDYFHWGQGTQVTVSS”, the “polyreactivity (PSR sort gate)” value is listed as “high polyreactivity”. As for “QVQLQESGGGLVQAGGSLCLSCAASGTIFFDRDMGWYRQAPGKEREFVAAINPGGSAYYADSVKGRLPLAAITHTVYLQRNSLKPEVTAVYYCAAKLFDVYGYYYWGQGTDVTVSS”, the “polyreactivity (PSR sort gate)” value was “low polyreactivity”. On to “QVQLQESGGGLVQAGGSLGCAASGNISTRSEMGWYRQAPGKDREFVATINSGGITNYADSVNGRFTISRDNAKKTVYLRMNSLKTEDTAVYYRAVFGYLSDPNDYCGQGTQVTVSS”, for which the “polyreactivity (PSR sort gate)” value is on record as “low polyreactivity”. As to “QVQLQESGGGLVQAGGSLLSCAASGTISWVDEMGWYRQAPGNERELVAGIAGGGNTNYADSVKGRFTISRDNAKNTVYLQMNSLDTAVYYCAGWDYTGNVVTGDYWGQGTQVTVSS”, the “polyreactivity (PSR sort gate)” value is on record as “high polyreactivity”. “QVQLQESGGGLVQAGGSLLSCAASGTISYYREMGWSRQSPGKQRELVAGIGVGTITYYADSVKGRFTISRDNAKKTVFLQMNSLNPEDTAVYYCAAHIDGNDSHAYWGQGTQVTVSS”: the “polyreactivity (PSR sort gate)” value is “low polyreactivity”. As for “QVQLQESGGGLVQAGGSLRKSCAASGYIFTQYGMGWYRQGPGKERKFVATISYGGNTNYADSVKGRFTISRDNAKNTVYLQLNSLKPEDTAVYSCATKSVGYRKYWSGDIYDYWGQGTQVTVSS”, the “polyreactivity (PSR sort gate)” value is “low polyreactivity”. As to “QVQLQESGGGLVQAGGSLRLICAASGTISTDSYMGWYRQAPGKERKFVATIGYGGITYYADSVNGRSTISRDSAKNTVYLQMNSLKPDDTAVYYCEVNSYYPYHYWYWGRGTQVTVSS”, the “polyreactivity (PSR sort gate)” value is listed as “high polyreactivity”.

As for “QVQLQESGGGLVQAGGSLRLRCAASGSISRLDYMGWYRQASGKELELVAAIDNGSTTYYADSVKGRLTISRDNEKYTVYLKMNSLKPEDTAVYFCAAVRGRGGTHAYWGQGTQVTVSG”, the “polyreactivity (PSR sort gate)” value was “low polyreactivity”. In the case of “QVQLQESGGGLVQAGGSLRLSCAARGSICLDQPMGWYRQSPCKDPELVATIGQGGNTNYADSVKGRFTISRDNEKNTVYLYMTSLKPEDTAVYYCAVVYFYNYAYHYYWGQGTQVTVCS”, the “polyreactivity (PSR sort gate)” value is “low polyreactivity”. For “QVQLQESGGGLVQAGGSLRLSCAASCTISQEDCMGWYRQAPGKVREFVAAIGLGSNTNYADSLKGRFTISRDNAKNTVYLQMNRLKPEDTAVYYCAVSVWQYSDHVYRGQGTQVTVSS”, the “polyreactivity (PSR sort gate)” value was “low polyreactivity”. Regarding “QVQLQESGGGLVQAGGSLRLSCAASGDNLEADDMGWYRQAPGKERELVASITDGGSTNCADSMKGRSTICRDNAKITVYLQMNSLKLEDTAVYYCAAIAYPDVPTYFDYDSDYFYWGQGTLVTVSS”, the “polyreactivity (PSR sort gate)” value is given as “high polyreactivity”. For “QVQLQESGGGLVQAGGSLRLSCAASGNIFLGDTMGWYRQAPGKEREFVAGIARGGNPYYADSVKGRFTISRNNAKNTVYLQKNSLKAEDTAVHYCAVQRSHASDYNYWGQGTQVTVSS”, the “polyreactivity (PSR sort gate)” value is listed as “low polyreactivity”. In the case of “QVQLQESGGGLVQAGGSLRLSCAASGSIANLIAKGWSRQAQRKEREFVAAIGPGANTNYADSVKGRFTISRDNANNTVYRQMNSLKPEDTAVYYCAVDYYGEAVYHYWGQGTQVTVSS”, the “polyreactivity (PSR sort gate)” value is “high polyreactivity”. On to “QVQLQESGGGLVQAGGSLRLSCAASGSIFDGFYMGWYRQAPGKEREFVAAISYGASTYYADSVKGRFTVSRDNAKNSVYLQMNSLKPEDTAVYYCAVYDELYHVLVYWGRGTQVTVSS”, for which the “polyreactivity (PSR sort gate)” value is given as “low polyreactivity”. With “QVQLQESGGGLVQAGGSLRLSCAASGSIFDYVSMGWYRQAPGEERELVVTITLGSNTYYADSVKGRFTISSDIAKNTVYLQMNSLNPVDTAVYYCAASALWGYVYPYWGLGTQVTVSS”, the “polyreactivity (PSR sort gate)” value is “high polyreactivity”. As to “QVQLQESGGGLVQAGGSLRLSCAASGSIFLFYTMGWYRQAPVKEREFVAGITLGTTTYNADSVKGRFTISRDNVKNTVYLQMNSLKPEDTAVYYCAVAVGHYTEFWYWGQGTQVTMSS”, the “polyreactivity (PSR sort gate)” value was “high polyreactivity”. As to “QVQLQESGGGLVQAGGSLRLSCAASGSIFVSVTMGWYRPAPGKERELVASIGRGSTTNHADSVKGRFTISRDNAKNIVYLLMNSLKPEDTAVYYCAALESYGKYHGYWGQGTQVTVSS”, the “polyreactivity (PSR sort gate)” value was “low polyreactivity”. Consider “QVQLQESGGGLVQAGGSLRLSCAASGSIFVSVTMGWYRQAPGKERELVASIGRGSTTNHADSVKGRFTISRDNAKNIVYLLMNSLKPEDTAVYYCAALESYGKYHGYWGQGTQVTVCS”, for which the “polyreactivity (PSR sort gate)” value is listed as “low polyreactivity”. Consider “QVQLQESGGGLVQAGGSLRLSCAASGSIFYKDDMGWYRQAPGKEREFVAGIDRGGTTNCAGSVKGRFTISRDNAKNTVYLQMISLKPEDTAVYYCAAYYPDIYPFIYRGQGTQVTVSS”, for which the “polyreactivity (PSR sort gate)” value is “high polyreactivity”.

As for “QVQLQESGGGLVQAGGSLRLSCAASGSIFYVYGMGWYRQAPGKERELVAVINAGTNTNYADSVRGRFTISRDNAINSVLLQMNSLKPEDTAVYYCADDGNGYQAHEYWGQGNQVTVSS”, the “polyreactivity (PSR sort gate)” value is on record as “high polyreactivity”.

Values taken from the nanobody polyreactivity screen of Harvey et al. (2022).
